# Data: US20230220053A1 (published 2023)
# Like-named read-outs stand apart in the source and are kept apart here.
# B1: 2020EP54-B12 IgG1 (antibody, V domains shown)
# VH: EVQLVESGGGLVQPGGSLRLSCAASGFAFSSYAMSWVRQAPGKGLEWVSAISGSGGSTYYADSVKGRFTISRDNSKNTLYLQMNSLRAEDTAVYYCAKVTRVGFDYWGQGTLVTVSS
# VL: SYELTQPPSVSVAPGKTARITCGGNNIGSKSVHWYQQKPGQAPVLVIYYDSDRPSGIPERFSGSNSGNTATLTISRVEAEDEADYYCQVWDSSSDVVFGGGTKLTVL
# notes: also called 2020EP054-B12; EP054-B12, IgG1
# B2: 2020EP54-E12 scFv (scFv)
# scFv: EVQLVESGGGLVQPGGSLRLSCAVTGFIVSSNYMNWVRQAPGKGLEWVSVIYSGGTTYYADSVKGRFTISRDKSKNTLYLQMNNLRAEDTAMYYCATLGNDYGDYGTDYWGQGTLVTVSSGGGGSGGGGSGGGGSQLVLTQPPSVSVSPGQTASISCSGDRLGQKYTSWYQQRPGQSPVLIMYQDNKRPSGIPERFSGSNSGNTATLTISGIQSMDEADYYCQVWDSGSDHAVFGGGTQLTVL
# notes: also called 2020EP054-E12
# B3: 2020EP54-E10 IgG1 (antibody, V domains shown)
# VH: QVQLVQSGAEVRKPGSSVKVSCKASGGTFSSFAISWVRQAPGQGLEWMGGIIPIFDTATYAQNFQGRVRMTADESTNTAYMELSSLTSEDTAVYYCARSTSYYDSRGDYKVGDFDYWGQGTLVTVSS
# VL: not shown
# notes: also called 2020EP054-E10
# B4: 2020EP54-E10 scFv (scFv)
# scFv: QVQLVQSGAEVRKPGSSVKVSCKASGGTFSSFAISWVRQAPGQGLEWMGGIIPIFDTATYAQNFQGRVRMTADESTNTAYMELSSLTSEDTAVYYCARSTSYYDSRGDYKVGDFDYWGQGTLVTVSSGGGGSGGGGSGGGGSAIRMTQSPSSLSASVGDRVTITCQASQDISNYLNWYQQKPGKAPKLLIYDASNLETGVPSRFSGSGSGTDFTFTISSLQPEDIATYYCQQYDNLPLTFGGGTKVEIK
# notes: also called 2020EP054-E10
# B5: 2020EP54-H01 IgG1 (antibody, V domains shown)
# VH: QVQLVESGGGVVQPGRSLRLSCAASGFTFSSYGMHWVRQAPGKGLEWVAVISYDGSNKYYADSVKGRFTISRDNSKNTLYLQMNSLRAEDTAVYYCAKGRGWYLDYWGQGTLVTVSS
# VL: NFMLTQPPSVSVSPGQTASITCSGDKLGDKYACWYQQKPGQSPVLVMYEDYKRPSGIPARFSGSNSGNTATLTISRVEGGDEGDYYCQVWDSRGPEVIFGGGTKLTVL
# notes: also called 2020EP054-H01; EP054-H01, IgG1
# B6: 2020EP54-E12 IgG1 (antibody, V domains shown)
# VH: EVQLVESGGGLVQPGGSLRLSCAVTGFIVSSNYMNWVRQAPGKGLEWVSVIYSGGTTYYADSVKGRFTISRDKSKNTLYLQMNNLRAEDTAMYYCATLGNDYGDYGTDYWGQGTLVTVSS
# VL: QLVLTQPPSVSVSPGQTASISCSGDRLGQKYTSWYQQRPGQSPVLIMYQDNKRPSGIPERFSGSNSGNTATLTISGIQSMDEADYYCQVWDSGSDHAVFGGGTQLTVL
# notes: also called 2020EP054-E12; EP054-E12, IgG1
# What was measured:
# [1] = target: T1, S1 protein of SARS-CoV-2 (recombinant, construct not stated) (SARS-CoV-2, UniProt P0DTC2 16-685); assay: ELISA, S1 coated, IgG1 titrated, anti-human Fc HRP
# [2] = target: T2, RBD of SARS-CoV-2 spike protein S1 (recombinant, construct not stated) (SARS-CoV-2, UniProt P0DTC2 328-533); assay: ELISA, RBD coated, IgG1 titrated, anti-human Fc HRP
# T2 construct: also called SARS-COV-2, RBD; RBD-AF647
# [3] = target: T3, S1 protein of SARS-COV (ACRO Biosciences) (SARS-COV, UniProt P59594 14-667); assay: ELISA, SARS-COV S1 coated, IgG titrated, anti-human Fc HRP
# T3 construct: domain: S1
# [4] = target: S protein of SARS-COV-2 (Sino Biologics) (SARS-CoV-2, UniProt P0DTC2 16-1213); assay: ELISA, S protein (Sino Biologics) coated, anti-human Fc HRP
# [5] = target: T4, RBD of SARS-COV (ACRO Biosciences) (SARS-COV, UniProt P59594 306-527); assay: ELISA, SARS-COV RBD coated, IgG titrated, anti-human Fc HRP
# T4 construct: domain: RBD; also called RBD-SARS; SARS-COV, RBD
# [6] = target: T1, S1 protein of SARS-CoV-2 (recombinant, …); assay: SPR (Biacore T200), IgG captured on protein A chip, S1 injected
# [7] = target: T2, RBD of SARS-CoV-2 spike protein S1 …; assay: SPR (Biacore T200), IgG captured on protein A chip, RBD injected
# [8] = target: T2, RBD of SARS-CoV-2 spike protein S1 …
# [9] = target: T1, S1 protein of SARS-CoV-2 (recombinant, …)
# [10] = target: T1, S1 protein of SARS-CoV-2 (recombinant, …); remark: listed apart in the source
# [11] = target: T1, S1 protein of SARS-CoV-2 (recombinant, …); assay: ELISA, S1 coated, scFv titrated, anti-Flag HRP
# [12] = target: T2, RBD of SARS-CoV-2 spike protein S1 …; assay: ELISA, RBD coated, scFv titrated, anti-Flag HRP
# [13] = target: T5, S1-Fc (SARS-CoV-2 S1 protein, Fc fusion) (SARS-CoV-2, UniProt P0DTC2 16-685); assay: SPR (Biacore T200), S1 captured on anti-human Fc chip, scFv injected
# [14] = target: T6, SARS-CoV-2-RBD (328-533)-Fc (SARS-CoV-2); assay: SPR (Biacore T200), RBD captured on anti-human Fc chip, scFv injected
# T6 construct: also called RBD-Fc
# [15] = target: SARS-CoV-2-RBD (328-533)-His (SARS-CoV-2, UniProt P0DTC2 328-533)
# [16] = target: HIS tagged S1 of SARS-CoV-2 (SARS-CoV-2, UniProt P0DTC2 16-685)
# [17] = target: T1, S1 protein of SARS-CoV-2 (recombinant, …); remark: listed apart in the source
# [18] = target: T1, S1 protein of SARS-CoV-2 (recombinant, …); remark: listed apart in the source
# [19] = target: T3, S1 protein of SARS-COV (ACRO …); assay: ELISA, SARS-COV S1 (ACRO) coated, anti-human Fc HRP
# [20] = target: T4, RBD of SARS-COV (ACRO Biosciences); assay: ELISA, SARS-COV RBD (ACRO) coated, anti-human Fc HRP
# [21] = target: T3, S1 protein of SARS-COV (ACRO …); assay: SPR (Biacore T200), IgG captured on protein A chip, SARS-COV S1 injected
# [22] = target: T4, RBD of SARS-COV (ACRO Biosciences); assay: SPR (Biacore T200), IgG captured on protein A chip, SARS-COV RBD injected
# [23] = target: T5, S1-Fc (SARS-CoV-2 S1 protein, Fc fusion); assay: SPR (Biacore T200), S1 captured on anti-human Fc chip, scFv injected; remark: listed apart in the source
# [24] = target: T6, SARS-CoV-2-RBD (328-533)-Fc; assay: SPR (Biacore T200), RBD captured on anti-human Fc chip, scFv injected; remark: listed apart in the source
Binder,EC50 [1] [nM],EC50 [2] [nM],binding result [3],EC50 [4] [nM],binding result [5],Kd [6] [nM],koff [6] [s⁻¹],kon [6] [M⁻¹ s⁻¹],Kd [7] [nM],koff [7] [s⁻¹],kon [7] [M⁻¹ s⁻¹],IC50 [8] [nM],IC50 [9] [nM],IC50 [10] [nM],EC50 [11] [nM],EC50 [12] [nM],Kd [13] [nM],koff [13] [s⁻¹],kon [13] [M⁻¹ s⁻¹],Kd [14] [nM],further results
B1,0.045,0.045,no binding (tested: 200 nM (highest concentration tested)),0.032,no binding (tested: 200 nM (highest concentration tested)),61.9,0.00507,82000,6.4,0.00578,903000,,,,,,,,,,
B2,,,,,,,,,,,,6.69,8.57,6.58,0.737,0.486,13.2,0.000687,51900,9.61,koff [14]: 0.000469 s⁻¹; kon [14]: 48900 M⁻¹ s⁻¹
B3,0.084,0.08,,0.0846,,1.15,0.000292,254000,0.131,0.00032,2.43e+06,,,,,,,,,,Kd [15]: 0.554 nM; koff [15]: 0.000807 s⁻¹; kon [15]: 1.46e+06 M⁻¹ s⁻¹; Kd [16]: 2.3 nM; koff [16]: 0.000498 s⁻¹; kon [16]: 217000 M⁻¹ s⁻¹; IC50 [17]: 0.774 nM; IC50 [18]: 2.71 nM; EC50 [19]: 0.027 nM; EC50 [20]: 0.035 nM; Kd [21]: 57.1 nM; koff [21]: 0.00433 s⁻¹; kon [21]: 75800 M⁻¹ s⁻¹; Kd [22]: 3.69 nM; koff [22]: 0.00675 s⁻¹; kon [22]: 1.83e+06 M⁻¹ s⁻¹
B4,,,,,,,,,,,,< 1,4.94,4.69,0.154,0.16,3.35,0.00106,316000,1.89,Kd [23]: 3.35 nM; koff [23]: 0.00106 s⁻¹; kon [23]: 316000 M⁻¹ s⁻¹; Kd [24]: 1.9 nM; koff [24]: 0.000906 s⁻¹; kon [24]: 477000 M⁻¹ s⁻¹; koff [14]: 0.000906 s⁻¹; kon [14]: 477000 M⁻¹ s⁻¹
B5,0.101,0.101,no binding (tested: 200 nM (highest concentration tested)),11.5,no binding (tested: 200 nM (highest concentration tested)),,,,,,,,,,,,,,,,
B6,0.103,0.053,no binding (tested: 200 nM (highest concentration tested)),0.462,no binding (tested: 200 nM (highest concentration tested)),,,,,,,,,,,,,,,,IC50 [17]: 3.79 nM; IC50 [18]: 1.9 nM
